The source of these data is patent US20240059769A1 (BIOLOJIC DESIGN, published 2024).

Experiment [1] has as its target T1, hTSLP-His (human, UniProt Q969D9 29-159, limits assumed).
T1 construct: bought; also called hTSLP (ACROBiosystems TSP-H52Hb); not shown: His tag
In words: competition ELISA, TSLP-R coated, soluble TSLP-R as competitor for hTSLP. In general terms: In an ELISA, binding on a coated surface is turned into a signal by an enzyme label.

The target of experiment [2] is T2, hIL-13-His (human, UniProt P35225 35-146, limits assumed). Briefly: cell-based or functional assay.
Experiment [3] addresses T3, human TSLP (human, UniProt Q969D9 29-159).
T3 construct: also called hTSLP; rhTSLP
In words: SPR (Biacore), antibody captured on anti-human Fc chip, hTSLP as analyte, multi-cycle, 1:1 binding model.

Experiment [4] addresses T2, hIL-13-His. Briefly: SPR (Biacore), antibody captured on anti-human Fc chip, hIL-13 as analyte, multi-cycle, 1:1 binding model. In general terms: Surface plasmon resonance follows binding to a sensor surface in real time, without labels.
Experiment [5] addresses T4, cynomolgus monkey (cyno) TSLP (cynomolgus monkey, UniProt A0A7N9CAT7 29-159).
T4 construct: also called cTSLP; cynomolgus TSLP
In words: SPR.

The target of experiment [6] is T3, human TSLP. Briefly: SPR (Biacore T200), antibody captured, cytokine analyte 30-0.153 nM.
Procedure: CMS chip was coated with human antibody capture kit to obtain 3000-5000 RU and the antibody, served as the capture, was injected at a flow rate of 10 ul/ml to obtain 250-350 RU.
In experiment [7] the target is T3, human TSLP. Briefly: cell-based or functional assay.
The target in experiment [8] is T5, recombinant human IL-13 (human, UniProt P35225 35-146). In words: cell-based or functional assay.
The target in experiment [9] is T6, recombinant cynomolgus monkey IL-13 (cynomolgus monkey, UniProt Q0PW92 21-132).
T6 construct: bought; also called rc-IL-13; cIL-13
In words: SPR.

The target in experiment [10] is T1, hTSLP-His. Briefly: cell-based or functional assay.
Experiment [11] concerns the target T3, human TSLP. In words: SPR.
Experiment [12] deals with T5, recombinant human IL-13. Briefly: SPR.
The target of experiment [13] is T5, recombinant human IL-13. In words: cell-based or functional assay. The source holds these as a separate data set.
In experiment [14] the target is T5, recombinant human IL-13. In words: cell-based or functional assay. The source holds these as a separate data set.
In another experiment the target is BSA (UniProt P02769 25-607). Briefly: ELISA, 250 ng coated ligand per well, 100 nM IgG, anti-human Fc-HRP.
For experiment [15], the target named is T7, IL-2 (Homo sapiens (Human), UniProt P60568 21-153). Briefly: specificity ELISA, 250 ng ligand coated.
In experiment [16] the target is T4, cynomolgus monkey (cyno) TSLP. Briefly: ELISA, ligand coated, IgG 1-1000 nM.
Experiment [17] deals with T3, human TSLP. Briefly: ELISA, ligand coated, IgG 1-1000 nM.
The target of experiment [18] is T6, recombinant cynomolgus monkey IL-13. In words: ELISA, ligand coated, IgG 1-1000 nM.
Experiment [19] deals with T5, recombinant human IL-13. In words: SPR (Biacore T200), antibody captured, hIL-13 analyte 20-0.6 nM.
Procedure: Recombinant cyno IL-13 (rc-IL-13) was tested at 200 nM with a 2-fold dilution (FIGS. 5C-5D).
Experiment [20] concerns the target T5, recombinant human IL-13. Briefly: SPR, steady state, antibody captured, hIL-13 analyte.
Procedure: Subsequent to a cycle, the analyte and tested antibody were stripped from the chip and new tested Ab was loaded on the chip as described above. KD was determined at a steady state condition.
The target of experiment [21] is T3, human TSLP. In words: SPR (ProteOn XPR36), antibody captured, hTSLP analyte 3.2-0.2 nM.
The target of experiment [22] is T1, hTSLP-His. In words: cell-based or functional assay. This is another data set of the same source.
Another experiment concerns the target T8, IL-4 (Homo sapiens (Human), UniProt P05112 25-153).
T8 sequence: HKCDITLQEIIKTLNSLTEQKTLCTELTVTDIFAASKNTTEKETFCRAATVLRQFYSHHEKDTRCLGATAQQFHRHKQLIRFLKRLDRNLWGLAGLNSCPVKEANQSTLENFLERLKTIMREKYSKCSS
In words: ELISA, 250 ng coated ligand per well, 100 nM IgG, anti-human Fc-HRP.

Experiment [23] deals with T7, IL-2. The description is as above.
The target in experiment [24] is T5, recombinant human IL-13. In words: SPR. This is another data set of the same source.
Experiment [25] concerns the target T1, hTSLP-His. In words: competition ELISA, TSLP-R-Fc coated, 3 nM hTSLP-His pre-mixed with IgG.
Source text: Wells were then washed three times with TBS 0.05% tween (TBS-T) and blocked with TBS-T containing 2% BSA (w/v).
The target in experiment [26] is T3, human TSLP. Briefly: SPR. The source holds these as a separate data set.

T4 sequence (A0A7N9CAT7 entry or part of it): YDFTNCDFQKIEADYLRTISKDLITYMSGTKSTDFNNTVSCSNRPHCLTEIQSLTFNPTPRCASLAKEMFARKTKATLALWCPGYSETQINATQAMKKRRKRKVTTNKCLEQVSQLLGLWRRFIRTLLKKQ
T2 sequence (P35225 35-146 limits assumed): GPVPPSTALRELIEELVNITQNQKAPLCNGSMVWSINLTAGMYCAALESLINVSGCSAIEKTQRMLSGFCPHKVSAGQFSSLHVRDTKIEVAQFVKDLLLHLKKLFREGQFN
T5 sequence (P35225 35-146 limits assumed): as above
T6 sequence (Q0PW92 entry or part of it): as the sequence (P35225 35-146 limits assumed) above, with G1S, R10K, M42V, S67N, H83R, L100V counted along it
BSA, sequence (P02769 25-607 limits assumed): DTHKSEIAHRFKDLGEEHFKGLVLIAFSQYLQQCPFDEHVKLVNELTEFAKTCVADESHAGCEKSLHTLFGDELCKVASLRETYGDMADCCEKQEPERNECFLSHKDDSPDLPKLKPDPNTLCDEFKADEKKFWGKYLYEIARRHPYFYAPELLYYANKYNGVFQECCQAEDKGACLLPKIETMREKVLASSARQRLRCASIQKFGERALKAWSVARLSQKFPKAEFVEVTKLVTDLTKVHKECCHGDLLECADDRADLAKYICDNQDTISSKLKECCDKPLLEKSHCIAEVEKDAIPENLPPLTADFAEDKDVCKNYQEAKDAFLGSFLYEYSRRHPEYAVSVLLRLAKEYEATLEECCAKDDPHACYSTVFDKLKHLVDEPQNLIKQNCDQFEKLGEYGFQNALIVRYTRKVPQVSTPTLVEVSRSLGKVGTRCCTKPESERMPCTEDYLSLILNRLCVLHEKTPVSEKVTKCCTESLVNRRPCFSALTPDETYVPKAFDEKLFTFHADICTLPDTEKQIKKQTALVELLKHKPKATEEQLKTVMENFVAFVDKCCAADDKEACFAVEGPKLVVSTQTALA
T7 sequence (P60568 21-153 limits assumed): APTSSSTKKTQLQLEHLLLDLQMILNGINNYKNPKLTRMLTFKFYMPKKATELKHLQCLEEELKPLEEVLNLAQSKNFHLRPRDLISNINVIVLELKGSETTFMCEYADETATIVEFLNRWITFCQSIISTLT
T2 sequence (P35225 35-146 limits assumed): as the sequence (P35225 35-146 limits assumed) above

B1: TSLP-R-Fc tag (Fc fusion, UniProt Q9HC73 23-231, looked up)
chain: QGGAAEGVQIQIIYFNLETVQVTWNASKYSRTNLTFHYRFNGDEAYDQCTNYLLQEGHTSGCLLDAEQRDDILYFSIRNGTHPVFTASRWMVYYLKPSSPKHVRFSWHQDAVTVTCSDLSYGDLLYEVQYRSPFDTEWQSKQENTCNVTIEGLDAEKCYSFWVRVKAMEDVYGPDTYPSDWSEVTCWQRGEIRDACAETPTPPKPKLSK
notes: bought; also called TSLP receptor; not shown: Fc tag
As for B1, in the experiment with hTSLP-His [1], the 50% inhibitory concentration (IC50) (usually the concentration needed to halve the response being measured) came to 3 nM.

B2: BDG38.145 (antibody, human IgG1, lambda, L234A L235A)
heavy: not shown
light: SYVLTQPPSVSVAPGETASITCGGNMIGGYLVHWYQQKPGQAPVLVIYDDVDRPSRIPERFSGSNSGNTATLTISRVEAGDEADYYCQVWDHNSNHMVFGGGTKLTVLGQPKAAPSVTLFPPSSEELQANKATLVCLISDFYPGAVTVAWKADSSPVKAGVETTTPSKQSNNKYAASSYLSLTPEQWKSHRSYSCQVTHEGSTVEKTVAPTECS
notes: human IgG1 L234A/L235A (LALA); same VH/VL as BDG38.138; also called BSG38.145; hIgG1 LALA
B2: the “IC50, CD23 expression on monocytes (hPBMC, 0.7 nM IL-13)” value in the experiment with hIL-13-His [2] came out at 0.38 nM. In the experiment with human TSLP [3], binding was put at a Kd of 0.00779 nM; the koff (as a rule, the first-order rate constant of dissociation) was 0.0002 s⁻¹; the kon – broadly, a measure of how fast the partners come together – is 2.57e+07 M⁻¹ s⁻¹. Besides, in the experiment with hIL-13-His [4], binding was put at a Kd of 0.0879 nM, the koff was 0.000323 s⁻¹ and the kon worked out at 3.67e+06 M⁻¹ s⁻¹.

B3: BDG38.094 (antibody, V domains shown)
VH: QMQLVESGGGVVQPGRSLRLSCAASGFAFRTYGMHWVRQAPGKGLEWVAVIWDDGSNTHYADSVKGRFTITRDNSKNTLNLQMNSLRAEDTAVYYCVRAPQWYLTAEAFDLWGQGTMVTVSS
VL: SYVLTQPPSVSVAPGETASITCGGNLIGAYLVHWYQQKPGQAPLLVIYDDVDRPARIPERFSGSNSGNTATLTISRVEAGDEADYYCQVWDHNSNHMVFGGGTKLTVL
notes: IgG1
As to B3, the Kd (in general, the concentration at which binding is half-saturated) was 0.00275 nM in [5]; < 0.001 nM in the experiment with human TSLP [6]; 0.27 nM in experiment [9]; 0.0127 pM with human TSLP [11]; 0.0138 nM with recombinant human IL-13 [12]. Besides, the koff in experiment [5] worked out at 3.18e-05 s⁻¹; in experiment [9] it was 0.006 s⁻¹; with human TSLP [11], 1.82e-07 s⁻¹; in the experiment with recombinant human IL-13 [12], 9.36e-05 s⁻¹. Besides, the kon in experiment [5] was 1.16e+07 M⁻¹ s⁻¹; in experiment [9], 2.22e+07 M⁻¹ s⁻¹; with human TSLP [11], 1.44e+07 M⁻¹ s⁻¹; in the experiment with recombinant human IL-13 [12] it was 6.77e+06 M⁻¹ s⁻¹. In the experiment with human TSLP [7], the “IC50 TARC” value was found to be 0.356 nM. The “IC50 CD23” value with recombinant human IL-13 [8] was 0.172 nM. For the same molecule, the “IC50 [pM], STAT5 phosphorylation inhibition in MUTZ5 cells” value with hTSLP-His [10] was found to be 27.2 pM. Further, in the experiment with recombinant human IL-13 [13], the “HEK-IL-13 [nM] (IC50, STAT6 reporter)” value turned out to be 0.0487 nM.

B4: BDG33.025 (antibody, V domains shown)
VH: QMQLVESGGGVVQPGRSLRLSCAASGFTFRTYGMHWVRQAPGKGLEWVADIWYDGSNKHYADSVKGRFTITRDNSKNTLNLQMNSLRAEDTAVYYCARAPQWYLVAEPFDLWGQGTMVTVSS
VL: SYVLTQPPSVSVAPGQTARITCGGNLIGSKLVHWYQQKPGQAPVLVVYDDSDRPSLIPERFSGSNSGNTATLTISRVEAGDEADYYCQVWDSSSDGVVFGGGTKLTVL
notes: standard IgG; also called BGD33.025; BDG33.0025
Consider B4, for which, in the experiment with recombinant human IL-13 [14], the “IC50, HEK-Blue IL-4/IL-13 reporter (0.4 nM rh-IL-13)” value stood at 25 nM. The binding result with BSA is given as “no binding (tested: 100 nM)”; with IL-2 [15], “no binding (tested: 100 nM IgG)”. Moreover, the half-maximal effective concentration (EC50) – broadly, the concentration at which the effect is half-maximal – in [16] came to 148 nM; with human TSLP [17], 12.8 nM; in experiment [18], 1.5 nM. For the same molecule, in the experiment with recombinant human IL-13 [19], the Kd worked out at 0.903 nM. Also, in the experiment with recombinant human IL-13 [19], the off-rate constant (koff) turned out to be 0.0036 s⁻¹. Besides, in the experiment with recombinant human IL-13 [19], the on-rate constant (kon) turned out to be 4.07e+06 M⁻¹ s⁻¹.

B5: BDG33.004 (antibody, V domains shown)
VH: QMQLVESGGGVVQPGRSLRLSCAASGFTFRTYGMHWVRQAPGKGLEWVAVIWYDGSNKHYADSVKGRFTITRDNSKNTLNLQMNSLRAEDTAVYYCARAPQWMLVAEAFDLWGQGTMVTVSS
VL: SYVLTQPPSVSVAPGQTARITCGGNLIGSKLVHWYQQKPGQAPVLVVYDDSDRPSRIPERFSGSNSGNTATLTISRVEAGDEADYYCQVWDSSSDHVVFGGGTKLTVL
notes: human IgG1, lambda light chain; also called BGD33.004; Clone C6 (as IgG1)
Turning to B5, in the experiment with recombinant human IL-13 [20], the Kd was determined as 57.4 nM. Further, in the experiment with human TSLP [21], the affinity, expressed as Kd, was 3.33 nM; the koff turned out to be 0.00114 s⁻¹; the association rate constant (kon) worked out at 344000 M⁻¹ s⁻¹.

B6: BDG33.003 (antibody, V domains shown)
VH: QMQLVESGGGVVQPGRSLRLSCAASGFTFRTYGMHWVRQAPGKGLEWVAVIWYDGSNKHYADSVKGRFTITRDNSKNTLNLQMNSLRAEDTAVYYCARAPQWELTAEAFDIWGQGTMVTVSS
VL: SYVLTQPPSVSVAPGQTARITCGGNLIGSKLVHWYQQKPGQAPVLVVYDDSDRPSLIPERFSGSNSGNTATLTISRVEAGDEADYYCQVWDSSSDGVVFGGGTKLTVL
notes: also called BGD33.003; Clone C2 (as IgG1)
On to B6, for which, in the experiment with recombinant human IL-13 [20], the dissociation constant (Kd) came to 21.6 nM. In the experiment with human TSLP [21], this molecule registered a Kd of 4.5 nM, an off-rate constant (koff) of 0.00129 s⁻¹ and a kon of 287000 M⁻¹ s⁻¹.

B7: BDG33.023 (antibody, V domains shown)
VH: QMQLVESGGGVVQPGRSLRLSCAASGFAFRTYGMHWVRQAPGKGLEWVAVIWYDGSNTHYADSVKGRFTITRDNSKNTLNLQMNSLRAEDTAVYYCARAPQWYLSAEAFDLWGQGTMVTVSS
VL: SYVLTQPPSVSVAPGQTARITCGGNLIGSKLVHWYQQKPGQAPVLVVYDDSDRPSRIPERFSGSNSGNTATLTISRVEAGDEADYYCQVWDHSSDHVVFGGGTKLTVL
notes: standard IgG; also called BGD33.023; BDG33.0023
As to B7, in the experiment with hTSLP-His [22], the “IC50, TSLP dependent pSTAT5 activation in MUTZ5 cells (14 pM TSLP)” value turned out to be 13 pM. The “IC50, HEK-Blue IL-4/IL-13 reporter (0.4 nM rh-IL-13)” value in the experiment with recombinant human IL-13 [14] came out at 1.3 nM. For the same molecule, the binding result with IL-4, with IL-2 [23] and with BSA was “no binding (tested: 100 nM)” throughout. For the same molecule, the Kd turned out to be 3.01 nM in the experiment with recombinant human IL-13 [24], 3.65 nM with recombinant human IL-13 [19] and 0.0625 nM with human TSLP [26]. Also, the koff in the experiment with recombinant human IL-13 [24] is 0.00457 s⁻¹; in the experiment with recombinant human IL-13 [19], 0.0157 s⁻¹; in the experiment with human TSLP [26] it was 6.84e-05 s⁻¹. In addition, the on-rate (kon) in the experiment with recombinant human IL-13 [24] was determined as 1.52e+06 M⁻¹ s⁻¹; in the experiment with recombinant human IL-13 [19] it was 4.31e+06 M⁻¹ s⁻¹; with human TSLP [26], 1.09e+06 M⁻¹ s⁻¹. The molecule further registered an IC50 with hTSLP-His [25] of 0.41 nM. The EC50 stood at 8.2 nM in experiment [16], 2.5 nM with human TSLP [17] and 7.1 nM in experiment [18].
